# US8840891 (RSR, dated 2014)
# Assays:
# Test in all cases: cell-based or functional assay
# [1] = biological target: human TSHR, wild type, expressed on CHO cells (human) (UniProt P16473)
# [2] = biological target: human TSHR (wild type) expressed in CHO cells (human) (UniProt P16473)
# [3] = biological target: human TSHR, wild type, expressed on CHO cells (human) (UniProt P16473); remark: listed apart in the source
# [4] = biological target: wild type human TSHR (human) (UniProt P16473)
# [5] = biological target: TSHR with Asp160 mutated to Lysine (human) (UniProt P16473)
# Sequence of M22 (antibody) (VH): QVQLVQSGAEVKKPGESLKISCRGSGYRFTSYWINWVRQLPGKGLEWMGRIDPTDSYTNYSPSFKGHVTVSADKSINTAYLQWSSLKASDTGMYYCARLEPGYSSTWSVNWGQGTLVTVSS
# Sequence of M22 (antibody) (V domain): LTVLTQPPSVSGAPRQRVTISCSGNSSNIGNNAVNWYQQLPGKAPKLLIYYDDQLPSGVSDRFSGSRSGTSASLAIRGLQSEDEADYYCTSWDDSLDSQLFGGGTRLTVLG
substance,measurement,setting,value
native human TSH (NIBSC reference preparation 81/565) (from UniProt P01215 25-116; P01222 21-132) (ligand),cyclic AMP; Exp 1; native human TSH 100 ng/mL only,[1],36.1 pmol/mL
same,cyclic AMP; Exp 2; native human TSH 100 ng/mL only,[1],40.8 pmol/mL
same,cyclic AMP; Exp 3; native human TSH 100 ng/mL only,[1],31.1 pmol/mL
M22 Fab,cyclic AMP production; M22 Fab 3 ng/mL only (fmol/cell well),[2],9430
same,cyclic AMP; Exp 1; M22 3 ng/mL,[3],49.1 pmol/mL
same,cyclic AMP; Exp 2; M22 3 ng/mL,[3],68.3 pmol/mL
same,cyclic AMP; Exp 3; M22 0.3 ng/mL,[3],21.8 pmol/mL
same,cyclic AMP; Exp 4; M22 0.3 ng/mL,[3],31.1 pmol/mL
recombinant human TSH (NIBSC reference preparation 94/674) (from UniProt P01215 25-116; P01222 21-138) (ligand),cyclic AMP; Exp 1; recombinant human TSH 100 ng/mL only,[1],12.7 pmol/mL
same,cyclic AMP; Exp 2; recombinant human TSH 100 ng/mL only,[1],16.7 pmol/mL
same,cyclic AMP; Exp 3; recombinant human TSH 100 ng/mL only,[1],26.4 pmol/mL
M22 (antibody),cyclic AMP; M22 3 ng/mL only (fmol/cell well),[4],16800
same,cyclic AMP; M22 3 ng/mL only (repeat determination) (fmol/cell well),[4],16700
same,Mutated/wild type (%); M22 only,[5],85%
same,cyclic AMP; M22 3 ng/mL only (fmol/cell well),[5],14300
same,cyclic AMP; M22 3 ng/mL only (repeat determination) (fmol/cell well),[5],18900
5C9 F(ab′)2,cyclic AMP; Example 1; 5C9 F(ab′)2 10 µg/mL + TSH (fmol/cell well),[2],916
same,cyclic AMP; Example 1; 5C9 F(ab′)2 100 µg/mL + TSH (fmol/cell well),[2],877
same,cyclic AMP; Example 1; 5C9 F(ab′)2 100 µg/mL only (fmol/cell well),[2],204
same,cyclic AMP; Example 2; 5C9 F(ab′)2 10 µg/mL + TSH (fmol/cell well),[2],1330
same,cyclic AMP; Example 2; 5C9 F(ab′)2 100 µg/mL + TSH (fmol/cell well),[2],1060
same,cyclic AMP; Example 2; 5C9 F(ab′)2 100 µg/mL only (fmol/cell well),[2],414
